Our source for the Kd values is the supplement of paper PMC6379048.

Common to all, as to test: Kd (EC50 corrected by depletion factor)
Data set [1] addresses T1, XAB2 (UniProt Q9HCS7).
T1 sequence: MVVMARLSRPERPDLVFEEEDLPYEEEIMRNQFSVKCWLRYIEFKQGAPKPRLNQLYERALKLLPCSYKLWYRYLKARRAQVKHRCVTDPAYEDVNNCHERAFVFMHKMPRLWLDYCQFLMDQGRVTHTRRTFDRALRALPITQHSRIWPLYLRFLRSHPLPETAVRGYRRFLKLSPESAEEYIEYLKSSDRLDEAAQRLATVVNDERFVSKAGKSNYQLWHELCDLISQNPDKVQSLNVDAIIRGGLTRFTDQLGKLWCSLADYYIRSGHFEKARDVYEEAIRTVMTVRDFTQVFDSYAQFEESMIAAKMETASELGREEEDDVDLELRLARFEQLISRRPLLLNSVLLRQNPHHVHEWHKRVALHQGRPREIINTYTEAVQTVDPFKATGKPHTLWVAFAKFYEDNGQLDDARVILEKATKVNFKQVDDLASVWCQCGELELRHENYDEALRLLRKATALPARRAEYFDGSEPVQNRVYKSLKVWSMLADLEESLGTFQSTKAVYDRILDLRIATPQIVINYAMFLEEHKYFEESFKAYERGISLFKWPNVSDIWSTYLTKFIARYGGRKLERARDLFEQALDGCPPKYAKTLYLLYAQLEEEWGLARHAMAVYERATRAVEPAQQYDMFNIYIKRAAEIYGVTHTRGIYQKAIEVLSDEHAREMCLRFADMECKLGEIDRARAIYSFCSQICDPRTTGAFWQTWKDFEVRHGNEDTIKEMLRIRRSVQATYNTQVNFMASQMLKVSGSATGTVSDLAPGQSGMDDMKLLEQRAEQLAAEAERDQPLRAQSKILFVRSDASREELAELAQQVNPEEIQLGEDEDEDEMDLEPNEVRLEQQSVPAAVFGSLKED
Put shortly:
(§1)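 HEK293-FT lysate (2.5 mg protein/well) was pre-incubated 1 h at 4°C with free RNA oligos (0 nM to 30 μM), then 30 min at 4°C with the same 5′-amino-C6 oligos coupled to NHS-Sepharose beads. Bound proteins were quantified by label-free LC-MS/MS in three biological replicates and two independent experiments, and normalised to the water control. EC50 came from a four-parameter log-logistic fit; Kd is EC50 times a protein-dependent depletion factor.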

The target in data set [2] is T2, HNRNPDL (UniProt O14979).
T2 sequence: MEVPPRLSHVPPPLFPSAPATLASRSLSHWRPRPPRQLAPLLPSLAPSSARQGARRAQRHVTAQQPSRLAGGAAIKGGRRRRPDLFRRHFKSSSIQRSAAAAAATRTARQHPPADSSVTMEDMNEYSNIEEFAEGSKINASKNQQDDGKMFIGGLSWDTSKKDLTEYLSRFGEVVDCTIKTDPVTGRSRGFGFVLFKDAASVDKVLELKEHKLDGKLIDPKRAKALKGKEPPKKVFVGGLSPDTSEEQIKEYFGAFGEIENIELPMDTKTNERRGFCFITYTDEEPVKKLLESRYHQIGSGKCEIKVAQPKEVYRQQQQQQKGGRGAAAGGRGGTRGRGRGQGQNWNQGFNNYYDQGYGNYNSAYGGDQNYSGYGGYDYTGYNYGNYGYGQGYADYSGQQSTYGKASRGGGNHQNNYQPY
In a few lines: as §1

Data set [3] concerns the target T3, HNRNPD (UniProt Q14103).
T3 sequence: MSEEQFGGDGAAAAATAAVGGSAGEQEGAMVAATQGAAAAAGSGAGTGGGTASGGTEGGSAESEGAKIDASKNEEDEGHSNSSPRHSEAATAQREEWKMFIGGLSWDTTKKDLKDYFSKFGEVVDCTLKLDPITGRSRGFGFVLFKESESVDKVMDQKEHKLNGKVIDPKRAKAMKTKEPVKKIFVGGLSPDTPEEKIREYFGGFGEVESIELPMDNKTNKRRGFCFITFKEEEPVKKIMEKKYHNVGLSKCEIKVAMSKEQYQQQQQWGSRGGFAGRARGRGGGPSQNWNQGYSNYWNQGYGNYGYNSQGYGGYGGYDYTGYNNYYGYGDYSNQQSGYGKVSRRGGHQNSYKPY
In a few lines:
as §1

In data set [4] the target is LSM3 (UniProt P62310). In a few lines: as §1
The target in data set [5] is T4, ZFP36L2 (UniProt P47974).
T4 sequence: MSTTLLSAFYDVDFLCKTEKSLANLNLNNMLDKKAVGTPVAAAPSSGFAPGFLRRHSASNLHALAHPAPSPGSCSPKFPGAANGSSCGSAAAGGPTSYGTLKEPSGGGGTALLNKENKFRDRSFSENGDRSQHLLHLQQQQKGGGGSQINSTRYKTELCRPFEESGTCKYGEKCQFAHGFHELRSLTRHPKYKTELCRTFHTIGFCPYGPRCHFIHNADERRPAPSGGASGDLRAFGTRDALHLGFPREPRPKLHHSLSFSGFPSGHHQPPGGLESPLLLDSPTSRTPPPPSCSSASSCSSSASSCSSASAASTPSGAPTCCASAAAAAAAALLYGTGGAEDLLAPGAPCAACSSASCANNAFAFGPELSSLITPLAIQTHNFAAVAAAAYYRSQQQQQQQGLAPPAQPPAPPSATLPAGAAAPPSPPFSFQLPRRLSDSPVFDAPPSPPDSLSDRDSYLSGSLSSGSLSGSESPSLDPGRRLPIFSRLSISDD
Put shortly: as §1

In general, Kd refers to a measure of binding affinity in units of concentration. A higher Kd goes with weaker binding.

Sequence of LSM3 (P62310 whole entry): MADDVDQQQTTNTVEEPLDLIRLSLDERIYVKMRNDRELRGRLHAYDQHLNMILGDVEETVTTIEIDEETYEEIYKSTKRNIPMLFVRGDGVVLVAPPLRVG

On to AAUAAA, for which the Kd stood at 322 nM in data set [1]; 152 nM in data set [2]; 764 nM in data set [3]; 45 nM in data set [4]; 357 nM in data set [5].

Consider UAUUUAU, for which the Kd in data set [1] is 286 nM; in data set [2], 2360 nM; in data set [3], 583 nM; in data set [4], 307 nM; in data set [5], 11.1 nM.
